Test results taken from publication PMC3090270 (Structure (London, England : 1993), 2010).

Experiments:
Assay in all cases: fluorescence polarisation
[1] = molecular target: Bovine full-length RIα C16A (bovine)
[2] = molecular target: Bovine full-length RIα H23A (bovine)
[3] = molecular target: Bovine full-length RIα Y19A (bovine)
[4] = molecular target: Bovine full-length RIα, wild type (bovine, UniProt P00514 1-380)
[5] = molecular target: Bovine full-length RIα C37A (bovine)

Bovine full-length RIα, wild type, sequence (P00514 whole entry): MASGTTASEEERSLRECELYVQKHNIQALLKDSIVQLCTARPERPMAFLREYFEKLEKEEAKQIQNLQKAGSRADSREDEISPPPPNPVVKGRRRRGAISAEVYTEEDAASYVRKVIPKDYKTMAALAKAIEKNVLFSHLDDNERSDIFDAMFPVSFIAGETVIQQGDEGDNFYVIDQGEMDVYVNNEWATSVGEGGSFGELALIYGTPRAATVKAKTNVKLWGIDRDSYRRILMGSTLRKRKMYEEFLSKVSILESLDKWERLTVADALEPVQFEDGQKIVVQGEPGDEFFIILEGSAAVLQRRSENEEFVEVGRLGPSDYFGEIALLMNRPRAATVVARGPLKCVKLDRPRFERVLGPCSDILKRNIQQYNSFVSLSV

B1: D-AKAP2 AKB peptide (residues 623-650), last residue changed to Cys, fluorescently labeled (peptide)
chain: VQGNTDEAQEELAWKIAKMIVSDVMQQC
modifications: fluorescin-5-maleimide or tetramethylrhodamine-5-maleimide on the Cys that replaces the last residue
Binder B1 has a Kd [1] of 126 nM, a Kd [2] of 198 nM and a Kd [3] of 1330 nM. For the same binder, the Kd [4] was 48 nM and the Kd [5] was 745 nM.
